The text below walks through data of US20180333477A1.

The assay addresses RSV line 19 F protein with I557V, as expressed by vaccine candidate OE4 (respiratory syncytial virus strain line 19) (UniProt P12568). As to the kind of experiment: MPE8 binding to virus stocks kept at 4 C over 8 days.

With Pre-F-specific mAb MPE8 (antibody), the pre-F antigen level (MPE8 binding) relative to A2 was over 2 fold.
